{"source": "paper PMC3299299", "about": "“Recombinant Expression and Characterization of Human and Murine ACE2: Species-Specific Activation of the Alternative Renin-Angiotensin-System” (International Journal of Hypertension, 2012)", "molecules": {"B1": {"name": "rmACE2: extracellular domain of murine ACE2 recombinantly expressed in CHO cells (protein)", "chain": "QSLTEENAKTFLNNFNQEAEDLSYQSSLASWNYNTNITEENAQKMSEAAAKWSAFYEEQSKTAQSFSLQEIQTPIIKRQLQALQQSGSSALSADKNKQLNTILNTMSTIYSTGKVCNPKNPQECLLLEPGLDEIMATSTDYNSRLWAWEGWRAEVGKQLRPLYEEYVVLKNEMARANNYNDYGDYWRGDYEAEGADGYNYNRNQLIEDVERTFAEIKPLYEHLHAYVRRKLMDTYPSYISPTGCLPAHLLGDMWGRFWTNLYPLTVPFAQKPNIDVTDAMMNQGWDAERIFQEAEKFFVSVGLPHMTQGFWANSMLTEPADGRKVVCHPTAWDLGHGDFRIKMCTKVTMDNFLTAHHEMGHIQYDMAYARQPFLLRNGANEGFHEAVGEIMSLSAATPKHLKSIGLLPSDFQEDSETEINFLLKQALTIVGTLPFTYMLEKWRWMVFRGEIPKEQWMKKWWEMKREIVGVVEPLPHDETYCDPASLFHVSNDYSFIRYYTRTIYQFQFQEALCQAAKYNGSLHKCDISNSTEAGQKLLKMLSLGNSEPWTKALENVVGARNMDVKPLLNYFQPLFDWLKEQNRNSFVGWNTEWSPYADQSIKVRISLKSALGANAYEWTNNEMFLFRSSVAYAMRKYFSIIKNQTVPFLEEDVRVSDLKPRVSFYFFVTSPQNVSDVIPRSEVEDAIRMSRGRINDVFGLNDNSLEFLGIHPTLEPPYQPPVT"}}, "format_in_all_cases": "biochemical", "key": {"[1]": {"tested_on": "human RAS in blood plasma", "experiment": "Ex vivo incubation of renin-spiked human plasma, RAS-Fingerprinting by LC-MS/MS", "conditions": "human plasma + 100 pg/mL recombinant human renin, 10 μM Lisinopril present, without or with 5 μg/mL enzyme, 10 min 37°C (Fig 3b); 0 = below quantification limit (2 pg/mL plasma)", "protocol": "Anticoagulated blood was collected from healthy volunteers, and plasma was separated by 10 minutes centrifugation at 3000 RCF. […] After 10 minutes of incubation at 37°C, in the presence or absence of Lisinopril (Sigma), samples were chilled on ice and immediately subjected to LC-MS/MS analysis.\nPlasma samples were spiked with 100 pg/mL stable-isotope-labeled internal standards and subjected to solid-phase extraction using Sep-Pak cartridges (Waters) according to manufacturers protocol. Following elution and solvent evaporation, samples were reconstituted in 50 μL 50% acetonitrile/0.1% formic acid and subjected to LC-MS/MS analysis using a reversed-phase analytical column (Luna C18, Phenomenex) using a gradient ranging from 10% acetonitrile/0.1% formic acid to 70% acetonitrile/0.1% formic acid in 9 minutes. The eluate was analyzed in line with a QTRAP-4000 mass spectrometer (AB Sciex) operated in the MRM mode using dwell times of 25 msec at a cone voltage of 4000 volts and a source temperature of 300°C. For each peptide and corresponding internal standards, two different mass transitions were measured. Angiotensin peptide concentrations were calculated by relating endogenous peptide signals to internal standard signals provided that integrated signals achieved a signal-to-noise ratio above 10.\nRAS-Fingerprints were measured by LC-MS/MS as indicated in Section 2. Samples were incubated in the absence (a) or presence (b) of 10 μM of the ACE inhibitor Lisinopril. In this figure, the diameter of the spheres reflects the concentration of the respective peptide metabolite, which is also given in pg/mL next to each individual sphere. 0 pg/mL indicates concentrations below quantification limits, which are defined by a signal-to-noise ratio below 10. Furthermore, the amino acid sequence of each angiotensin metabolite is schematically given in brackets beside the corresponding sphere. The sequence annotation is based on the decapeptide Angiotensin I (1–10) which is N- or C-terminally cleaved by the indicated proteases. […]"}, "[2]": {"tested_on": "Ang 1–8", "experiment": "In vitro kinetic assay, Ang 1–8 cleavage to Ang 1–7, HPLC quantification", "conditions": "ratio of k cat of the same enzyme for the two substrates", "method": "(§1) Enzyme reactions were started by adding a defined amount of enzyme to substrate dilutions in MES-buffer (50 mM MES, 300 mM NaCl, 10 μM ZnCl2, 0.01% Brij-35, pH 6.5) which were previously equilibrated at 37°C. Aliquots of the reaction mixes were taken every 10 minutes and stopped by addition of 0.5 M EDTA to a final concentration of 100 mM before HPLC-based quantification of peptides.\n(§2) The concentration of peptides in enzymatic reactions was quantified by detection of peaks eluted from the HPLC column using an in-line diode array detector. Chromatography was performed by running a gradient on a reversed-phase matrix (Source 5RPC, 4.6×150 mm, 5 μm) with 0.08% H3PO4 in water as mobile phase A and 40% acetonitrile in water and 0.08% H3PO4 as mobile phase B. The optical density at 280 nm was recorded inline for all eluting peaks, and peptide concentrations were calculated via calibration curves for each individual peptide.\nThe turnover rates for natural ACE2 substrates were determined by in vitro incubation with excess amounts of substrate followed by reversed-phase HPLC analysis. […] The resulting time courses are shown in the graphs. […] Each time point was analyzed in true triplicates and standard deviations are given in the graphs together with linear regressions of the measured values."}, "[3]": {"tested_on": "Ang 1–10", "experiment": "In vitro kinetic assay, Ang 1–10 cleavage to Ang 1–9, HPLC quantification", "method": "as §1, §2\nThe turnover rates for natural ACE2 substrates were determined by in vitro incubation with excess amounts of substrate followed by reversed-phase HPLC analysis. […] Each time point was analyzed in true triplicates and standard deviations are given in the graphs together with linear regressions of the measured values."}}}
{"molecule": "B1", "values": [{"measurement": "Ang (1–7) concentration in plasma", "setting": "[1]", "value": "< 2", "unit": "pg/mL"}, {"measurement": "turnover number for Ang 1–8 compared to Ang 1–10", "setting": "[2]", "value": 492, "unit": "fold"}, {"measurement": "Ang 1–10-related turnover rate of rmACE2 as share of the rate for rhACE2", "setting": "[3]", "value": 7, "unit": "%"}, {"measurement": "k cat, Ang 1–10 ≥ Ang 1–9", "setting": "[3]; […] enzyme, 65 μM Ang 1–10, MES buffer pH 6.5, 37°C, HPLC, mean of substrate degradation and product formation rates related to enzyme concentration, triplicates", "value": 0.0013, "unit": "s⁻¹"}]}
